By Km is commonly meant the substrate concentration at which the rate is half of its maximum. A word on the kcat: it is the maximal rate divided by the concentration of active sites.

These results are taken from article PMC4354731.

Substrate in series [1]: COC1=C(OC)C(=O)C(C)=CC1=O
The experiment in a line: succinate:Q0 oxidoreductase steady-state kinetics in membranes. The class given is biochemical, Escherichia coli. The note with it: [3Fe-4S], [4Fe-4S], [2Fe-2S] clusters; FAD; heme b.

Substrate in series [2]: CC(C)=CCC1=C(O)C(=O)c2ccccc2C1=O
The experiment in a line: lapachol:fumarate oxidoreductase steady-state kinetics in membranes. The class given is biochemical, Escherichia coli. The conditions noted are these: [3Fe-4S], [4Fe-4S], [2Fe-2S] clusters; FAD; heme b.

B1: succinate dehydrogenase (SdhCDAB), SdhB subunit (Escherichia coli K-12) (protein)
chain 1: MRLEFSIYRYNPDVDDAPRMQDYTLEADEGRDMMLLDALIQLKEKDPSLSFRRSCREGVCGSDGLNMNGKNGLACITPISALNQPGKKIVIRPLPGLPVIRDLVVDMGQFYAQYEKIKPYLLNNGQNPPAREHLQMPEQREKLDGLYECILCACCSTSCPSFWWNPDKFIGPAGLLAAYRFLIDSRDTETDSRLDGLSDAFSVFRCHSIMNCVSVCPKGLNPTRAIGHIKSMLLQRNA
chain 2: MIRNVKKQRPVNLDLQTIRFPITAIASILHRVSGVITFVAVGILLWLLGTSLSSPEGFEQASAIMGSFFVKFIMWGILTALAYHVVVGIRHMMMDFGYLEETFEAGKRSAKISFVITVVLSLLAGVLVW
chain 3: MVSNASALGRNGVHDFILVRATAIVLTLYIIYMVGFFATSGELTYEVWIGFFASAFTKVFTLLALFSILIHAWIGMWQVLTDYVKPLALRLMLQLVIVVALVVYVIYGFVVVWGV
In the case of B1, the values for the Km in series [1] and in series [2] were 150 µM and 100 µM, respectively. For the same protein, the kcat is 33.9 s⁻¹ in series [1] and 11.9 s⁻¹ in series [2].
